For 55 molecules, Kd results are on record in patent US20200199241A1 (Chugai, published 2020).

Where a chain is given by its changes, count along the chain named.

B1: IgG1-F980 (antibody)
heavy: QVQLQESGPGLVKPSETLSLTCAVSGHSISHDHAWSWVRQPPGEGLEWIGFISYSGITNYNPSLQGRVTISRDNSKNTLYLQMNSLRAEDTAVYYCARSLARTTAMDYWGEGTLVTVSSASTKGPSVFPLAPSSKSTSGGTAALGCLVKDYFPEPVTVSWNSGALTSGVHTFPAVLQSSGLYSLSSVVTVPSSSLGTQTYICNVNHKPSNTKVDKKVEPKSCDKTHTCPPCPAPELLGGPSVFLFPPKPKDTLYIVRTPEVTCVVVDVSHEDPEVKFNWYVDGVEVHNAKTKPREEQYNSTYRVVSVLTVLHQDWLNGKEYKCKVSNKALPAPIEKTISKAKGQPREPQVYTLPPSRDELTKNQVSLTCLVKGFYPSDIAVEWESNGQPENNYKTTPPVLDSDGSFFLYSKLTVDKSRWQQGNVFSCSVMHEALHYHYTQKSLSLSP
light: not shown
notes: EU numbering; copies: 2 + 2
B2: IgG1-F1043 (antibody)
heavy: B1 heavy with L237K, S241K, T252V, V256S, V310P
light: not shown
notes: EU numbering; copies: 2 + 2
B3: IgG1-F1018 (antibody)
heavy: B1 heavy with L237R, S241K, V256S, N288E, T309Q, V310P, Q313A, Y438V
light: not shown
notes: EU numbering; copies: 2 + 2
B4: IgG1-F1037 (antibody)
heavy: B1 heavy with L237K, S241K, V256S, T309Q, Q313A, M430I, Y438V
light: not shown
notes: EU numbering; copies: 2 + 2
B5: IgG1-F1044 (antibody)
heavy: B1 heavy with L237K, S241K, T252V, V256S, T309Q, V310P, Q313A
light: not shown
notes: EU numbering; copies: 2 + 2
B6: IgG1-F991 (antibody)
heavy: B1 heavy with L237R, S241K, V256S, N288E, T309Q, Q313A, Y438V
light: not shown
notes: EU numbering; copies: 2 + 2
B7: IgG1-F1051 (antibody)
heavy: B1 heavy with L237R, S241K, T252V, V256S, N288E, T309Q, V310P, Q313A, M430I, Y438V
light: not shown
notes: EU numbering; copies: 2 + 2
B8: IgG1-F988 (antibody)
heavy: B1 heavy with P240D, T252V, V256S, N288E, Y438V
light: not shown
notes: EU numbering; copies: 2 + 2
B9: IgG1-F1040 (antibody)
heavy: B1 heavy with L237K, S241K, T252V, V256S, Y438V
light: not shown
notes: EU numbering; copies: 2 + 2
B10: IgG1-F1032 (antibody)
heavy: B1 heavy with P240D, T252V, V256S, T309Q, Q313A, N327G, Y438V
light: not shown
notes: EU numbering; copies: 2 + 2
B11: IgG1-F1028 (antibody)
heavy: B1 heavy with G238A, S241D, T252V, V256S, T309Q, Q313A, Y438V
light: not shown
notes: EU numbering; copies: 2 + 2
B12: IgG1-F1008 (antibody)
heavy: B1 heavy with L237R, S241K, T252V, V256S, Y438V
light: not shown
notes: EU numbering; copies: 2 + 2
B13: IgG1-F1058 (antibody)
heavy: B1 heavy with V256S, Q388E, Y438V
light: not shown
notes: EU numbering; copies: 2 + 2
B14: IgG1-F987 (antibody)
heavy: B1 heavy with P240D, T252V, V256S, T309Q, Q313A, Y438V
light: not shown
notes: EU numbering; copies: 2 + 2
B15: IgG1-F989 (antibody)
heavy: B1 heavy with L237R, S241K, V256S, V310P, Y438V
light: not shown
notes: EU numbering; copies: 2 + 2
B16: IgG1-F996 (antibody)
heavy: B1 heavy with L237R, P240D, S241K, V256S, Y438V
light: not shown
notes: EU numbering; copies: 2 + 2
B17: IgG1-F1021 (antibody)
heavy: B1 heavy with P240D, T252V, V256S, N327A
light: not shown
notes: EU numbering; copies: 2 + 2
B18: IgG1-F995 (antibody)
heavy: B1 heavy with L237R, P240D, S241K, V256S
light: not shown
notes: EU numbering; copies: 2 + 2
B19: IgG1-F1015 (antibody)
heavy: B1 heavy with L237R, S241K, V256S, T309Q, V310P, Q313A
light: not shown
notes: EU numbering; copies: 2 + 2
B20: IgG1-F1025 (antibody)
heavy: B1 heavy with S241D, T252V, V256S, T309Q, Q313A, K328D, L330Y, Y438V
light: not shown
notes: EU numbering; copies: 2 + 2
B21: IgG1-F1012 (antibody)
heavy: B1 heavy with L237R, S241K, T252V, V256S, V310P
light: not shown
notes: EU numbering; copies: 2 + 2
B22: IgG1-F1026 (antibody)
heavy: B1 heavy with V256S, T309A, Q313H, Y438V
light: not shown
notes: EU numbering; copies: 2 + 2
B23: IgG1-F1024 (antibody)
heavy: B1 heavy with T252V, V256S, T309Q, Q313A, K328D, L330Y, Y438V
light: not shown
notes: EU numbering; copies: 2 + 2
B24: IgG1-F1009 (antibody)
heavy: B1 heavy with L237R, S241K, T252V, V256S, T309Q, V310P, Q313A, Y438V
light: not shown
notes: copies: 2 + 2
B25: IgG1-F998 (antibody)
heavy: B1 heavy with K250Y, T252V, V256S, Y438V
light: not shown
notes: EU numbering; copies: 2 + 2
B26: IgG1-F1010 (antibody)
heavy: B1 heavy with L237R, S241K, V256S, T309A, Q313H
light: not shown
notes: EU numbering; copies: 2 + 2
B27: IgG1-F994 (antibody)
heavy: B1 heavy with V256S, N327G
light: not shown
notes: EU numbering; copies: 2 + 2
B28: IgG1-F1034 (antibody)
heavy: B1 heavy with L237K, S241K, V256S, V310P, Y438V
light: not shown
notes: EU numbering; copies: 2 + 2
B29: IgG1-F1046 (antibody)
heavy: B1 heavy with L237K, S241K, T252V, V256S, N288E, T309Q, V310P, Q313A, Y438V
light: not shown
notes: EU numbering; copies: 2 + 2
B30: IgG1-F997 (antibody)
heavy: B1 heavy with K250I, T252V, V256S, Y438V
light: not shown
notes: EU numbering; copies: 2 + 2
B31: IgG1-F992 (antibody)
heavy: B1 heavy with L237R, S241K, V256S, T309Q, Q313A, M430I, Y438V
light: not shown
notes: EU numbering; copies: 2 + 2
B32: IgG1-F1036 (antibody)
heavy: B1 heavy with L237K, S241K, V256S, N288E, T309Q, Q313A, Y438V
light: not shown
notes: EU numbering; copies: 2 + 2
B33: IgG1-F1061 (antibody)
heavy: B1 heavy with V256S, P389E, Y438V
light: not shown
notes: EU numbering; copies: 2 + 2
B34: IgG1-F1027 (antibody)
heavy: B1 heavy with L237R, S241K, V256S, T309A, Q313H, Y438V
light: not shown
notes: EU numbering; copies: 2 + 2
B35: IgG1-F1048 (antibody)
heavy: B1 heavy with L237K, S241K, V256S, T309A, Q313H, Y438V
light: not shown
notes: EU numbering; copies: 2 + 2
B36: IgG1-F1050 (antibody)
heavy: B1 heavy with T252V, V256S, N288E, T309Q, V310P, Q313A, M430I, Y438V
light: not shown
notes: EU numbering; copies: 2 + 2
B37: IgG1-F1052 (antibody)
heavy: B1 heavy with L237R, S241K, V256S, N288E, T309Q, V310P, Q313A, M430I, Y438V
light: not shown
notes: EU numbering; copies: 2 + 2
B38: IgG1-F1035 (antibody)
heavy: B1 heavy with L237K, S241K, V256S, T309Q, V310P, Q313A, Y438V
light: not shown
notes: EU numbering; copies: 2 + 2
B39: IgG1-F1013 (antibody)
heavy: B1 heavy with T252V, V256S, T309Q, V310P, Q313A
light: not shown
notes: EU numbering; copies: 2 + 2
B40: IgG1-F1011 (antibody)
heavy: B1 heavy with T252V, V256S, V310P
light: not shown
notes: EU numbering; copies: 2 + 2
B41: IgG1-F1023 (antibody)
heavy: B1 heavy with S241D, T252V, V256S, T309Q, Q313A, Y438V
light: not shown
notes: EU numbering; copies: 2 + 2
B42: IgG1-F1042 (antibody)
heavy: B1 heavy with L237K, S241K, V256S, T309A, Q313H
light: not shown
notes: EU numbering; copies: 2 + 2
B43: IgG1-F1038 (antibody)
heavy: B1 heavy with L237K, P240D, S241K, V256S
light: not shown
notes: EU numbering; copies: 2 + 2
B44: IgG1-F1020 (antibody)
heavy: B1 heavy with P240D, T252V, V256S, T309Q, Q313A, N327G
light: not shown
notes: EU numbering; copies: 2 + 2
B45: IgG1-F1045 (antibody)
heavy: B1 heavy with L237K, S241K, V256S, T309Q, V310P, Q313A
light: not shown
notes: EU numbering; copies: 2 + 2
B46: IgG1-F999 (antibody)
heavy: B1 heavy with T252V, V256S, E260H, Y438V
light: not shown
notes: EU numbering; copies: 2 + 2
B47: IgG1-F1029 (antibody)
heavy: B1 heavy with T252V, V256S, T309Q, Q313A, I334E, Y438V
light: not shown
notes: EU numbering; copies: 2 + 2
B48: IgG1-F1062 (antibody)
heavy: B1 heavy with V256S, P389R, Y438V
light: not shown
notes: EU numbering; copies: 2 + 2
B49: IgG1-F990 (antibody)
heavy: B1 heavy with L237R, S241K, V256S, T309Q, V310P, Q313A, Y438V
light: not shown
notes: EU numbering; copies: 2 + 2
B50: IgG1-F1041 (antibody)
heavy: B1 heavy with L237K, S241K, T252V, V256S, T309Q, V310P, Q313A, Y438V
light: not shown
notes: EU numbering; copies: 2 + 2
B51: IgG1-F1053 (antibody)
heavy: B1 heavy with L237R, S241K, T252V, V256S, T309Q, Q313A, Y438V
light: not shown
notes: EU numbering; copies: 2 + 2
B52: IgG1-F1059 (antibody)
heavy: B1 heavy with V256S, Q388R, Y438V
light: not shown
notes: EU numbering; copies: 2 + 2
B53: IgG1-F1047 (antibody)
heavy: B1 heavy with L237K, S241K, V256S, N288E, T309Q, V310P, Q313A, Y438V
light: not shown
notes: EU numbering; copies: 2 + 2
B54: IgG1-F1016 (antibody)
heavy: B1 heavy with T252V, V256S, N288E, T309Q, V310P, Q313A, Y438V
light: not shown
notes: EU numbering; copies: 2 + 2
B55: IgG1-F993 (antibody)
heavy: B1 heavy with V256S, T309Q, Q313A, Y438V
light: not shown
notes: EU numbering; copies: 2 + 2

The Kd is a measure of binding affinity in units of concentration.
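Note: test antibodies captured on a Protein L chip with human FcRn flowed over as analyte, KD obtained as the ratio of dissociation to association rate constants.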

For this assay, the target named is T1, soluble human FcRn complexed with β2-microglobulin (human, UniProt P61769 21-119, limits assumed).
T1 construct: also called hFcRn
T1 sequence (chain, as listed by the source limits assumed, chain 1 of 2): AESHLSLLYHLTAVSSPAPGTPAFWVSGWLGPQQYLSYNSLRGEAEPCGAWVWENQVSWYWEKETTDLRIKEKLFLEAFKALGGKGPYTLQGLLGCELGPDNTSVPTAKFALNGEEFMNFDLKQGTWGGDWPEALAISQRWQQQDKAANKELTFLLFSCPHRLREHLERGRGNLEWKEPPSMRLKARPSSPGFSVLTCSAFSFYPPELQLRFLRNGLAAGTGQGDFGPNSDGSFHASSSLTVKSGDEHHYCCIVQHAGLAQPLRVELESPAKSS
T1 sequence (P61769 21-119 limits assumed, chain 2 of 2): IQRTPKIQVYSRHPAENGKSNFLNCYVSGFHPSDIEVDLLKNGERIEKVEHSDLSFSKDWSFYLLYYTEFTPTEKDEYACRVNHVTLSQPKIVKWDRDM
Briefly: Biacore SPR, pH 7.0. (In SPR one partner is held on a chip, and binding of the other changes the refractive index at the surface.)
Procedure: A kinetic analysis of binding between human FcRn and the aforementioned antibodies was carried out using the BIACORE™ T100 or T200 surface plasmon resonance system (GE Healthcare). The antibodies being tested were captured on the CM4 Sensor Chip (GE Healthcare) on which a suitable amount of Protein L (ACTIGEN® protein (Alltech)) was suitably immobilized by amine coupling. Next, diluted human FcRn and a running buffer used as a blank were injected to allow the human FcRn to interact with the antibody captured on the sensor chip. A buffer consisting of 50 mmol/L sodium phosphate, 150 mmol/L NaCl and 0.05% (w/v) polysorbate 20 (Tween 20®) (pH 7.0 or pH 7.4) was used for the running buffer, and each buffer was also used to dilute the human FcRn. 10 mmol/L glycine-HCl (pH 1.5) was used to regenerate the sensor chip. All measurements of binding were carried out at 25° C. The KD(M) of each antibody to human FcRn was calculated based on kinetics parameters, i.e., the association rate constant ka (1/Ms) and the dissociation rate constant kd (1/s) calculated from a sensorgram obtained by the measurement. The BIACORE™ T100 or T200 Evaluation Software (GE Healthcare) was used to calculate each parameter.
For B1, the Kd was determined as 180 nM. Then B2, with 52 nM; and B3, with 3.2 nM.

Molecule B4 came in with a Kd of 61 nM. Consider B5, for which the Kd was found to be 35 nM. For B6 the value was 13 nM; for B7, 3.9 nM. B8 had a Kd of 69 nM. With B9, the dissociation constant Kd came out at 200 nM. Then B10, with 43 nM; and B11, with 46 nM; and B12, with 170 nM. Then B13, with 131 nM; and B14, with 40 nM. For B15 the value was 14 nM; for B16, 130 nM. B17 showed a Kd of 330 nM. Molecule B18 returned a Kd of 290 nM. For B19 the value was 22 nM. For B20 the value was 36 nM.

In the case of B21, the Kd came out at 47 nM. Then B22, with 84 nM; and B23, with 40 nM. On to B24, for which the affinity, expressed as Kd, was 12 nM. For B25 the value was 850 nM; for B26, 190 nM.

The molecule B27 came in with a Kd of 280 nM. Then B28, with 15 nM. The molecule B29 yielded a dissociation constant (Kd) of 4.5 nM.

In turn, B30 displayed a dissociation constant Kd of 380 nM.

Consider B31, for which the Kd amounted to 51 nM. For B32 the value was 14 nM; for B33, 119 nM.

Molecule B34 had a Kd of 86 nM. In the case of B35, binding was characterised by a dissociation constant (Kd) of 99 nM. With B36, the Kd was 3.5 nM. For B37 the value was 3.2 nM; for B38, 10 nM.

For B39, the Kd is 30 nM. On to B40, for which the affinity, expressed as Kd, was 45 nM. Molecule B41 registered a Kd of 44 nM. Take B42: binding was put at a Kd of 200 nM. In turn, B43 came in with a Kd of 280 nM. B44 came in with a Kd of 85 nM. The molecule B45 yielded a Kd of 25 nM. Regarding B46, the Kd was found to be 210 nM. Then B47, with 51 nM; and B48, with 120 nM; and B49, with 9.4 nM. For B50 the value was 14 nM; for B51, 42.3 nM. Then B52, with 139 nM; and B53, with 3.4 nM; and B54, with 3.8 nM.

Molecule B55 had a Kd of 38 nM.
